Kd, koff and kon data for 11 molecules are collected here from patent EP4763862A1.

B1: 34-H11-D9-F6 (antibody, human IgG1, kappa, V domains shown)
VH: EVQLQQSGAELVKPRASVRLSCRASGYTFTSYWMHWVKQRPGQGLEWIGMIHPNSGSTNYNEKFKSKATLTVDKSSSTAYMQLSSLTSEDSAVYFCARERFGLLRYFDYWGQGTTLTVSS
VL: DIVMTQSPSSMYASLGERVTITCKASQDINSFLSWFQQKPGKSPKTLLYRANRLMDGVPSRFSGSGSGQDFSLTISSREYEDMGIYYCLQYDEFPFTFGSGTKLELKR
B2: 28-F8-C4-A8 (antibody, human IgG1, kappa, V domains shown)
VH: EVQLQQSGAELVQPGASMKLSCKTSGYTFTTYDINWVRQRPEQGLEWIGWIFPGDGTTKYNEKFKGKATLTTDKSSSTAYMHLSRLTSEDSVVYFCARTPWFDYWGQGTTLTVSS
VL: DIVLSQSPAIMSASPGEKVIMTCSASSSISYMYWYQQKPGTSPKRWIYDTSKLASGVPARFSVSGSGTSYSLTISSMEAEDAATYYCHQRSSYPTFGGGTKLELKR
B3: 28-B1-E8-C11 (antibody, human IgG1, kappa, V domains shown)
VH: EVKLVESGAVLVKPGASVKISCKASGYTLSDFNMDWVKQSQGKSLEWVGDINPNYDTITYNQKFRGKATLTVDRSSNTAYMELRSLTSEDSAVYYCARGELGRYFYVWGAGTTVTVSS
VL: DIQLTQPPASLSASVGETVTITCRASENVYSYLAWYRQKQGRSPQLLVYNAKTLPEGVPSRFSGSGSGTQFSLKINSLQTEDLGDYYCQHHYGTPWTFGGGTKLEIKR
B4: 19-F1-E9-B11 (antibody, human IgG1, kappa, V domains shown)
VH: EVQLQQSGPSLVKPSQTLSLTCSVTGGSITSFYWNWIRKFPGNKLEYMGYISSSGSTYYNPSLKSRISITRDTSKNQSYLQLNSVTAEDTATYYCARGGVHYGFGDYWGQGTSVTVSS
VL: DIVMTQSAPSVPVTPGESVSISCRSSKSLLHSNGNTYLYWFLQRPGQSPQLLIYRMSNLASGVPDRFSGSGSGTAFTLRISRVEAEDVGVYYCMQHLEYPLTFGAGTKLELKR
B5: 16-B6-G3-E10 (antibody, human IgG1, kappa, V domains shown)
VH: EVQLQQSGTELVRPGALVKLSCKTSGFNIKDCYMHWVKQRPEQGLEWIGWIDPENGNTIYDPKFQGKATITADTSSYTAYLQLSSLTSEDTAVYYCARSRARGYAMDYWGQGTSVTVTS
VL: DIVMTQSPASLAVSLGQRATISCRASQSVSTSSYSYMHWYRQIPGQPPKLLIKYASNLESGVPARFSGSGSGTDFTLNIHPVEEEDTATYYCQHSWEIPRTFGGGTKLELKR
B6: 16-D10-E1-E1 (antibody, human IgG1, kappa, V domains shown)
VH: EVQLQQSGPELVRPGVSVKISCKGSGYTFTDYAMHWVKQSHAKSLEWIGVINTYSGNTYYSQKFKGKATMTVDKSSSTAYMELARLTSEDSAIYYCARGAGYFPYWYFDVWGAGTTVTVSS
VL: DIQMIQSPSYLAASPGETITINCRASKSISKYLAWYQEKPGKTNKLLIYSGSTLQSGIPSRFSGSGSGTDFTLTISSLEPEDFAMYYCQQHYEYPYTFGGGTKLEIKR
B7: cAb1-z0-p7 (antibody, human IgG1, kappa, V domains shown)
VH: EVQLVESGGGLVKPGGSLRLSCAASGFTFSSYGMSWVRQAPGKGLEWVSSISGSGSYTYYPDSLKGRFTISRDNAKNSLYLQMNSLRAEDTAVYYCARQQGYWYFDVWGQGTTVTVSS
VL: DIVMTQTPLSLPVTPGEPASISCRASQSLASSYGKTYLSWYLQKPGQSPQLLIYGISNRFSGVPDRFSGSGSGTDFTLKISRVEAEDVGVYYCLHGTHQPLTFGQGTKLEIKR
B8: cAb1-z5-p7 (antibody, human IgG1, kappa, V domains shown)
VH: EVQLVESGGGLVKPGGSLRLSCAASGFTFSSYGMSWVRQAPGKRLEWVASISGSGSYTYYPDSLKGRFTISRDNAKNSLYLQMNSLRAEDTAVYYCARQQGYWYFDVWGQGTTVTVSS
VL: DVVMTQTPLSLPVTPGEPASISCRASQSLASSYGKTYLSWYLQKPGQSPQLLIYGISNRFSGVPDRFSGSGSGTDFTLKISRVEAEDVGVYYCLHGTHQPLTFGQGTKLEIKR
B9: cAb1-z3-p7 (antibody, human IgG1, kappa, V domains shown)
VH: EVQLVESGGGLVKPGGSLRLSCAASGFTFSSYGMSWVRQAPGKRLEWVSSISGSGSYTYYPDSLKGRFTISRDNAKNSLYLQMNSLRAEDTAVYYCARQQGYWYFDVWGQGTTVTVSS
VL: DVVMTQTPLSLPVTPGEPASISCRASQSLASSYGKTYLSWYLQKPGQSPQLLIYGISNRFSGVPDRFSGSGSGTDFTLKISRVEAEDVGVYYCLHGTHQPLTFGQGTKLEIKR
B10: cAb2-z1-p9 (antibody, human IgG1, kappa, V domains shown)
VH: EVKLVESGAVLVKPGASVKISCKASGYTLSDFNMDWVKQSQGKSLEWVGDINPNYDTITYNQKFRGKATLTVDRSSNTAYMELRSLTSEDSAVYYCARGELGRYFYVWGAGTTVTVSS
VL: DIQLTQPPSSLSASVGDRVTITCRASENVYSYLAWYQQKPGRSPQLLVYNAKTLPEGVPSRFSGSGSGTQFTLTISSLQPEDFADYYCSHHYGTPWTFGGGTKVEIKR
B11: cAb2-z5-p6 (antibody, human IgG1, kappa, V domains shown)
VH: QVQLVESGAVVKKPGASVKVSCKASGYTLSDFNMDWVRQAPGKSLEWMGDINPNYDTITYNQKFRGRVTLTVDRSINTAYMELSRLRSDDTAVYYCARGELGRYFYVWGAGTMVTVSS
VL: DIQLTQPPSSLSASVGDRVTITCRASENVYSYLAWYQQKPGRSPQLLVYNAKTLPEGVPSRFSGSGSGTQFTLTISSLQPEDFADYYCSHHYGTPWTFGGGTKVEIKR

One assay deals with Human B7-H3-His protein (human) (UniProt Q5ZPR3). Briefly: BLI, Fortebio Octet R2, antibody on AMQ sensor, human B7-H3-His in solution. A general note: In BLI a coated tip is dipped into the sample, and binding shifts an interference pattern.
As a reminder, the Kd is the free concentration of one partner at which half of the binding sites on the other are occupied at equilibrium, for simple one-to-one binding. By koff is commonly meant a measure of how fast the partners let go of each other. As usually defined, the kon is the second-order rate constant of association. In the case of B1, the dissociation constant (Kd) amounted to 0.0522 nM, the koff was 7.52e-05 s⁻¹ and the kon was determined as 1.44e+06 M⁻¹ s⁻¹.

As to B2, the dissociation constant Kd is 0.0434 nM, the koff was 7.56e-05 s⁻¹ and the kon was found to be 1.74e+06 M⁻¹ s⁻¹.

Molecule B3 displayed a dissociation constant Kd of 0.0714 nM, an off-rate constant (koff) of 8.49e-05 s⁻¹ and an association rate constant (kon) of 1.19e+06 M⁻¹ s⁻¹.

For the molecule B4, the dissociation constant Kd stood at 2.32 nM, the dissociation rate constant (koff) was 0.000408 s⁻¹ and the on-rate constant (kon) was found to be 176000 M⁻¹ s⁻¹.

On to B5, for which the Kd was below 0.001 nM, the koff is below 1e-07 s⁻¹ and the on-rate (kon) amounted to 1.3e+06 M⁻¹ s⁻¹.

B6 yielded a Kd of 0.0877 nM, a koff of 0.000142 s⁻¹ and a kon of 1.62e+06 M⁻¹ s⁻¹.

For a further assay the target is unchanged. Briefly: SPR, Biacore 8K, antibody captured by anti-human IgG Fc on CM5, B7-H3 Human-His as analyte, 1:1 model. (In general: Surface plasmon resonance follows binding to a sensor surface in real time, without labels.)
B7 displayed a dissociation constant (Kd) of 6.53 nM, a koff of 8.2e-05 s⁻¹ and a kon of 12600 M⁻¹ s⁻¹.

As for B8, the Kd is 3.51 nM, the dissociation rate constant (koff) was determined as 7.21e-05 s⁻¹ and the association rate constant (kon) was 20500 M⁻¹ s⁻¹.

In turn, B9 displayed a Kd of 4.02 nM, an off-rate constant (koff) of 6.87e-05 s⁻¹ and a kon of 17100 M⁻¹ s⁻¹.

B3 came in with a dissociation constant (Kd) of 5.91 nM, a koff of 0.000846 s⁻¹ and a kon of 143000 M⁻¹ s⁻¹.

In turn, B10 gave a dissociation constant (Kd) of 4.85 nM, a koff of 0.000802 s⁻¹ and a kon of 165000 M⁻¹ s⁻¹.

As to B11, the Kd was 6.6 nM, the off-rate constant (koff) was determined as 0.00122 s⁻¹ and the kon came out at 184000 M⁻¹ s⁻¹.
